Laboratory results taken from US20200261490.

Tests used:
[1] = target: STC2(C120A), human stanniocalcin 2 with cysteine 120 replaced by alanine, C-terminally myc-his-tagged
[2] = target: recombinant human stanniocalcin 1, C-terminally myc-his-tagged
[3] = target: recombinant human stanniocalcin 2, C-terminally myc-his-tagged
[4] = target: untagged human STC2 (transgene-derived STC2 of transgenic mice; endogenous STC2 of 293T cells)

B1: murine PAPP-A (protein)
chain: RGAEEPSPPSRALYFSGRGEQLRLRADLELPRDAFTLQVWLRAEGGQKSPAVITGLYDKCSYTSRDRGWVMGIHTTSDQGNRDPRYFFSLKTDRARKVTTIDAHRSYLPGQWVHLAATYDGRLMKLYMNGAQVATSAEQVGGIFSPLTQKCKVLMLGGSALNHNFRGHIEHFSLWKVARTQREIVSDMETRGLHTPLPQLLLQENWDNVKRTWSPMKDGNSPQVEFSNAHGFLLDTNLEPPLCGQTLCDNTEVISSYNQLPSFRQPKVVRYRVVNIYDDHHENPTVSWQQIDFQHQQLAEAFQHYNISWELEVLNINSSSLRHRLILANCDISKIGDEKCDPECNHTLTGHDGGDCRQLRYPAFMKKQQNGVCDMDCNYERFNFDGGECCDPDITDVTKTCFDPDSPHRAYLDVNELKNILRLDGSTHLNIFFANSSEEELAGVATWPWDKEALMHLGGIVLNPSFYGIPGHTHTMIHEIGHSLGLYHIFRGISEIQSCSDPCMETEPSFETGDLCNDTNPAPKHKFCGDPGPGNDTCGFHGFFNTPYNNFMSYADDDCTDSFTPNQVSRMHCYLDLVYQSWQPSRKPAPVALAPQVVGHTMDSVMLEWFPPIDGHFFERELGSACDLCLEGRILVQYAFNASSPMPCGPSGHWSPREAEGHPDVEQPCKSSVRTWSPNSAVNPHTVPPACPEPQGCYLELEFRYPLVPESLTIWVTFVSSDWDSSGAVNDIKLLTISGKNISLGPQNVFCDIPLTIRLRDVGEEVYGIQIYTLDEHLEIDAAMLTSTVDSPLCLQCKPLQYKVLRDPPLLEDVASLLHLNRRFMDTDLKLGSVYQYRIITISGNEESEPSPAAIYTHGSGYCGDGVIQKDQGEECDDMNKVNGDGCSLFCKQEVSFNCIDEPSRCYFHDGDGMCEEFEQKTSIKDCGVYTPQGFLDQWASNASVSHQDQQCPGWVVIGQPAASQVCRTKVIDLSEGISQHAWYPCTITYPYYHLPQTTFWLQTYFSQPMVAAAVIIHLVTDGTYYGDQKQETISVQLLDTKDQSHDLGLHVLSCRNNPLIIPVVHDLSQPFYHSQAVHVSFSSPLVAISGVALRSFDNFDPVTLSSCQRGETYSPAEQSCVHFACQAADCPELAVGNASLNCSSNHHYHGAQCTVSCQTGYVLQIQRDDELIKSQVGPSITVTCTEGKWNKQVACEPVDCGIPDHHHVYAASFSCPEGTTFGRRCSFQCRHPAQLKGNNSFLTCMEDGLWSFPEALCELMCLAPPPVPNADLQTARCRENKHKVGSFCKYKCKPGYHVPGSSRKSKKRAFKTQCTQDGSWQEGTCVPVTCDPPPPKFHGLYQCTNGFQFNSECRIKCEDSDASQGRGSNIIHCRKDGTWSGSFHVCREMQGQCSAPNQLNSNLKLQCPDGYAIGSECAISCLDHNSESIILPVNLTVRDIPHWMNPTRVQRIVCTAGLQWYPHPALIHCVKGCEPFMGDNYCDAINNRAFCNYDGGDCCTSTVKTKKVTPFPMSCDLQNDCACRDPEAQEHNRKDLRGYSHG
proteolytic activity of murine PAPP-A towards radiolabeled IGFBP-4 [1]: Murine PAPP-A and PAPP-A2 are inhibited by STC1 and STC2, but not STC2(C120A)
proteolytic activity of murine PAPP-A towards radiolabeled IGFBP-4 [2]: Murine PAPP-A and PAPP-A2 are inhibited by STC1 and STC2, but not STC2(C120A)
proteolytic activity of murine PAPP-A towards radiolabeled IGFBP-4 [3]: Murine PAPP-A and PAPP-A2 are inhibited by STC1 and STC2, but not STC2(C120A)
proteolytic activity towards IGFBP-4 in conditioned media of STC2 transgenic mouse embryonic fibroblasts [4]: conditioned media from MEFs derived from STC2 transgenic mice showed a marked reduction in PAPP-A activity
